Measurements published in paper PMC9234238.

Experiments:
[1] = target: DLL1-Fc (UniProt Q61483); assay: flow cytometry on cells (cell-based binding assay); details: HEK293T cells overexpressing N1 with Lfng cDNA; N1+LFNG set to 100%; parent: est. 100; read off a plot
[2] = target: DLL4-Fc (UniProt Q9JI71); assay: flow cytometry on cells (cell-based binding assay); details: read off a plot; for percent of parent: HEK293T cells overexpressing N1 with Lfng cDNA, N1+LFNG set to 100%, parent: est. 100; for response: HEK293T cells overexpressing N1 without Lfng cDNA, MFI normalised to N1+LFNG = 100%, parent: est. 79

Row | Substance | percent of parent [1] | percent of parent [2] | response [2]
1 | full-length mouse NOTCH1 (WT N1), coexpressed with LFNG (from UniProt Q01705) N1-16V (Thr of the O-fucose site in EGF16 changed to Val; residue number not printed) | 90 MFI(%) | 89 MFI(%) | –
2 | full-length mouse NOTCH1 (WT N1), coexpressed with LFNG (from UniProt Q01705) N1-26V (Thr of the O-fucose site in EGF26 changed to Val; residue number not printed) | 89 MFI(%) | 100 MFI(%) | –
3 | full-length mouse NOTCH1 (WT N1), coexpressed with LFNG (from UniProt Q01705) N1-27V (Thr of the O-fucose site in EGF27 changed to Val; residue number not printed) | 71 MFI(%) | 92 MFI(%) | –
4 | full-length mouse NOTCH1 (WT N1), expressed without LFNG (from UniProt Q01705) N1-6V (Thr of the O-fucose site in EGF6 changed to Val; residue number not printed) | – | – | 75 MFI(%)
5 | full-length mouse NOTCH1 (WT N1), expressed without LFNG (from UniProt Q01705) N1-26V (Thr of the O-fucose site in EGF26 changed to Val; residue number not printed) | – | – | 85 MFI(%)
6 | full-length mouse NOTCH1 (WT N1), expressed without LFNG (from UniProt Q01705) N1-27V (Thr of the O-fucose site in EGF27 changed to Val; residue number not printed) | – | – | 82 MFI(%)

More lines, now with the values ahead:

Row | percent of parent [1] | percent of parent [2] | response [2] | Substance
7 | 92 MFI(%) | 100 MFI(%) | – | full-length mouse NOTCH1 (WT N1), coexpressed with LFNG (from UniProt Q01705) N1-6V (Thr of the O-fucose site in EGF6 changed to Val; residue number not printed)
8 | – | – | 79 MFI(%) | full-length mouse NOTCH1 (WT N1), expressed without LFNG (from UniProt Q01705) N1-16V (Thr of the O-fucose site in EGF16 changed to Val; residue number not printed)
